Assay results published in patent US20190330277A1 (PIRBRIGHT INSTITUTE, published 2019).

B1: D25 antibody (antibody, V domains shown)
VH: QVQLVQSGAEVKKPGSSVMVSCQASGGPLRNYIINWLRQAPGQGPEWMGGIIPVLGTVHYAPKFQGRVTITADESTDTAYIHLISLRSEDTAMYYCATETALVVSTTYLPHYFDNWGQGTLVTVSS
VL: DIQMTQSPSSLSAAVGDRVTITCQASQDIVNYLNWYQQKPGKAPKLLIYVASNLETGVPSRFSGSGSGTDFSLTISSLQPEDVATYYCQQYDNLPLTFGGGTKVEIK
notes: also called mAb D25
B2: MPE8 antibody (antibody, V domains shown)
VH: EVQLVESGGGLVKPGGSLRLSCAASGFTFSSYSMNWVRQAPGKGLEWVSSISASSSYSDYADSAKGRFTISRDNAKTSLFLQMNSLRAEDTAIYFCARARATGYSSITPYFDIWGQGTLVTVSS
VL: QSVVTQTPSVSGAPGQRVTISCTGSSSNIGAGYDVHWYQQLPGTAPKLLIYDNNNRPSGVPDRFSASKSGTSASLAITGLQAEDEADYYCQSYDRNLSGVFGTGTKVTVL
notes: also called mAb MPE8

Legend:
Experiment in all cases: ELISA, variant from culture supernatant on Ni-NTA plate;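 also: antigenic evaluation by ELISA of constructs expressed at small scale in 96-well plates after transient plasmid transfection of cells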
391-2-DS-Cav1-BZGJ9_gyc5 = molecular target: T1, 391-2-DS-Cav1-BZGJ9_gyc5
T1 construct: also called sc-v10
Protocol: (§1) Initial assessment of all constructs were performed using a 96-well microplate format for high throughput expression followed by an ELISA-based antigenic evaluation as described previously 17. […] Plasmid DNA and TrueFect-Max (United BioSystems, MD) were mixed and added to the growing cells, and the 96-well plate incubated at 37° C., 5% CO2. One day post transfection, enriched medium (high glucose DMEM plus 25% ultra-low IgG fetal bovine serum, 2× nonessential amino acids, 1× glutamine) was added to each well, and the 96-well plate was returned to the incubator for continuous culture.

[1] = molecular target: T2, sc9-10_DS-CAV1_bRSV(RB94)_Fd_hp1_fp2_ig1
T2 construct: also called sc-v13
Protocol: as §1

[2] = molecular target: T3, sc9-10_DS-CAV1_bRSV(RB94)_Fd_pm1_fp1_ig1
T3 construct: also called sc-v15
Protocol: as §1

391-2-DS-Cav1-BZGJ9_gyc1 = molecular target: T4, 391-2-DS-Cav1-BZGJ9_gyc1
T4 construct: also called sc-v16
Protocol: as §1

391-2_DS-Cav1-tzsc7 = molecular target: T5, 391-2_DS-Cav1-tzsc7
T5 construct: also called sc-v21
Protocol: as §1

[3] = molecular target: T6, sc9-10_DS-CAV1_bRSV(RB94)_Fd_pm1_fp2_ig1
T6 construct: also called sc-v24
Protocol: as §1

[4] = molecular target: T7, sc9-10_DS-CAV1_bRSV(RB94)_Fd_fp2_ig1
T7 construct: also called sc-v34
Protocol: as §1

[5] = molecular target: T8, RB94 site 0 hRSV DS-Cav1-BZGJ9 Long FdPL
T8 construct: also called sc-v6
Protocol: as §1

[6] = molecular target: T9, RB94 site 0 hRSV bovSurf DS-Cav1-BZGJ9 Long FdPL
T9 construct: also called sc-v7
Protocol: as §1

[7] = molecular target: T10, RB94 hu/bov DS-Cav1 Long FdPL
T10 construct: also called sc-v20
Protocol: as §1

| Binder | ELISA binding value (391-2-DS-Cav1-BZGJ9_gyc5) | ELISA binding value [1] | ELISA binding value [2] | ELISA binding value (391-2-DS-Cav1-BZGJ9_gyc1) | ELISA binding value (391-2_DS-Cav1-tzsc7) | ELISA binding value [3] | ELISA binding value [4] | ELISA binding value [5] | ELISA binding value [6] | ELISA binding value [7] |
| --- | --- | --- | --- | --- | --- | --- | --- | --- | --- | --- |
| B1 | 1.93 | 1.88 | 1.67 | 1.4 | 0.997 | 1.01 | 0.299 | 2.16 | 2.21 |  |
| B2 | 1.8 | 1.81 | 1.73 | 1.55 | 1.5 | 0.973 | 0.464 | 2.2 | 2.14 | 1.38 |
